Data reported in the supplement of paper PMC10567573.

B1: RHOBTB3 (parent)
chain: KVVEAHKIVLCAVSHVFMLLFNVK

Variants of: B1
Experiment: protein stability index of a GFP-peptide fusion (GPS, HEK-293T) (PSI 1-6); higher = more stable
Details: c terminus: a fixed tail appended
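Also: lentivirally expressed fusions sorted by FACS into six bins by GFP to DsRed ratio, PSI derived from sequencing read proportions per bin multiplied by bin number.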

Point of comparison: KVVEAHKIVLCAVSHVFMLLPNVK [F21P], protein stability index 1.98. Against it:
- KVVEAHKIVLCAVSHVFMRLFNVK [L19R] — higher, 3.74
- KVVEAHKIVLCAVSHVFMTLFNVK [L19T] — higher, 3.4
- KVVEAHKIVLCAVSHVFMSLFNVK [L19S] — higher, 2.2
- KVVEAHKIVLCAVSHVFMGLFNVK [L19G] — higher, 2.75
- KVVEAHKIVLCAVSHVFMELFNVK [L19E] — higher, 2.2
- KVVEAHKIVLCAVSHVFMCLFNVK [L19C] — higher, 2.24
- KVVEAHKIVLCAVSHVFMYLFNVK [L19Y] — higher, 2.59
- KVVEAHKIVLCAVSHVFMALFNVK [L19A] — higher, 2.69
- KVVEAHKIVLCAVSHVFMFLFNVK [L19F] — higher, 3.32
- KVVEAHKIVLCAVSHVFMWLFNVK [L19W] — higher, 3.11
- KVVEAHKIVLCAVSHVFMILFNVK [L19I] — higher, 3.67
- KVVEAHKIVLCAVSHVFMNLFNVK [L19N] — higher, 2.18
- KVVEAHKIVLCAVSHVFMDLFNVK [L19D] — higher, 3.41
- KVVEAHKIVLCAVSHVFMPLFNVK [L19P] — higher, 2.31
- KVVEAHKIVLCAVSHRFMLLFNVK [V16R] — higher, 2.79
- KVVEAHKIVLCAVSHTFMLLFNVK [V16T] — higher, 3.44
- KVVEAHKIVLCAVSHSFMLLFNVK [V16S] — higher, 3.16
- KVVEAHKIVLCAVSHWFMLLFNVK [V16W] — higher, 3.09
- KVVEAHKIVLCAVSHYFMLLFNVK [V16Y] — higher, 2.19
- KVVEAHKIVLCAVSHVFMLLENVK [F21E] — lower, 1.88
- KVVEAHKIVLCAVSHVFMLLKNVK [F21K] — lower, 1.76
- KVVEAHKIVLCAVSHVFMLLWNVK [F21W] — higher, 2.5
- KVVEAHKIVLCAVSHVFMLLGNVK [F21G] — higher, 4.01
- KVVEAHKIVLCAVSHVFMLLDNVK [F21D] — higher, 3.1
- KVVEAHKIVLCAVSHVFMLLANVK [F21A] — higher, 3.13
- KVVEAHKIVLCAVSHVFMLLMNVK [F21M] — higher, 3.68
- KVVEAHKIVLCAVSHVFMLLLNVK [F21L] — higher, 2.76
- KVVEAHKIVLCAVSHVFMLLHNVK [F21H] — higher, 2.51
- KVVEAHKIVLCAVSHVFMLLVNVK [F21V] — higher, 3.87
- KVVEAHKIVLCAVSHVFMLLNNVK [F21N] — higher, 2.8
- KVVEAHKIVLCAVSHVFMLLRNVK [F21R] — lower, 1.81
- KVVEAHKIVLCAVSHVFMLLYNVK [F21Y] — higher, 2.14
- KVVEAHKIVLCAVSHVFMLLINVK [F21I] — higher, 3.17
- KVVEAHKIVLCAVSHVFFLLFNVK [M18F] — higher, 3.57
- KVVEAHKIVLCAVSHVFQLLFNVK [M18Q] — higher, 2.43
- KVVEAHKIVLCAVSHVFPLLFNVK [M18P] — higher, 2.3
- KVVEAHKIVLCAVSHVFTLLFNVK [M18T] — higher, 2.23
- KVVEAHKIVLCAVSHVFELLFNVK [M18E] — higher, 2.48
- KVVEAHKIVLCAVSHVFNLLFNVK [M18N] — higher, 3.02
- KVVEAHKIVLCAVSHVFYLLFNVK [M18Y] — higher, 2.5
- KVVEAHKIVLCAVSHVFSLLFNVK [M18S] — lower, 1.95
- KVVEAHKIVLCAVSHVFCLLFNVK [M18C] — higher, 2.3
- KVVEAHKIVLCAVSHVFILLFNVK [M18I] — higher, 3.05
- KVVEAHKIVLCAVSHVFALLFNVK [M18A] — higher, 3.04
- KVVEAHKIVLCAVSHVFDLLFNVK [M18D] — lower, 1.92
- KVVEAHKIVLCAVSHVFLLLFNVK [M18L] — higher, 3.85
- KVVEAHKIVLCAVSHVFKLLFNVK [M18K] — lower, 1.55
- KVVEAHKIVLCAVSHVFHLLFNVK [M18H] — higher, 2.34
- KVVEAHKIVLCAVSHVFRLLFNVK [M18R] — lower, 1.14
- KVVEAHKIVLCAVSHVFGLLFNVK [M18G] — higher, 2.75
- KVVEAHKIVLCAVSHVSMLLFNVK [F17S] — higher, 2.33
- KVVEAHKIVLCAVSHVHMLLFNVK [F17H] — higher, 3.54
- KVVEAHKIVLCAVSHVWMLLFNVK [F17W] — higher, 2.49
- KVVEAHKIVLCAVSHVAMLLFNVK [F17A] — higher, 2.4
- KVVEAHKIVLCAVSHVEMLLFNVK [F17E] — higher, 3.12
- KVVEAHKIVLCAVSHVIMLLFNVK [F17I] — higher, 2.06
- KVVEAHKIVLCAVSHVKMLLFNVK [F17K] — higher, 2.76
- KVVEAHKIVLCAVSHVTMLLFNVK [F17T] — higher, 2.9
- KVVEAHKIVLCAVSHVDMLLFNVK [F17D] — higher, 2.52
- KVVEAHKIVLCAVSHVMMLLFNVK [F17M] — higher, 2.78
- KVVEAHKIVLCAVSHVVMLLFNVK [F17V] — lower, 1.88
- KVVEAHKIVLCAVSHVGMLLFNVK [F17G] — higher, 3.57
- KVVEAHKIVLCAVSHVRMLLFNVK [F17R] — higher, 2.23
- KVVEAHKIVLCAVSHVCMLLFNVK [F17C] — higher, 3.12
- KVVEAHKIVLCAVSHVQMLLFNVK [F17Q] — higher, 2.41
- KVVEAHKIVLCAVSHVFMLLFQVK [N22Q] — higher, 2.84
- KVVEAHKIVLCAVSHVFMLLFFVK [N22F] — higher, 2.43
- KVVEAHKIVLCAVSHVFMLLFSVK [N22S] — higher, 2.72
- KVVEAHKIVLCAVSHVFMLLFPVK [N22P] — higher, 2.1
- KVVEAHKIVLCAVSHVFMLLFIVK [N22I] — higher, 3.19
- KVVEAHKIVLCAVSHVFMLLFTVK [N22T] — higher, 4.37
- KVVEAHKIVLCAVSHVFMLLFMVK [N22M] — higher, 3.79
- KVVEAHKIVLCAVSHVFMLLFGVK [N22G] — higher, 2.71
- KVVEAHKIVLCAVSHVFMLLFEVK [N22E] — higher, 2.47
- KVVEAHKIVLCAVSHVFMLLFCVK [N22C] — higher, 2.31
- KVVEAHKIVLCAVSHVFMLLFKVK [N22K] — lower, 1.9
- KVVEAHKIVLCAVSHVFMLLFRVK [N22R] — higher, 2.69
- KVVEAHKIVLCAVSHVFMLLFYVK [N22Y] — lower, 1.85
- KVVEAHKIVLCAVSHVFMLLFAVK [N22A] — higher, 2.86
- KVVEAHKIVLCAVSHVFMLLFHVK [N22H] — higher, 2.8
- KVVEAHKIVLCAVSHVFMLLFLVK [N22L] — higher, 2.42
- KVVEAHKIVLCAVSHVFMLLFDVK [N22D] — higher, 3.27
- KVVEAHKIVLCAVSHVFMLLFNHK [V23H] — higher, 3.18
- KVVEAHKIVLCAVSHVFMLLFNGK [V23G] — higher, 3.05
- KVVEAHKIVLCAVSHVFMLLFNEK [V23E] — higher, 3.25
- KVVEAHKIVLCAVSHVFMLLFNIK [V23I] — higher, 2.57
- KVVEAHKIVLCAVSHVFMLLFNFK [V23F] — higher, 2.99
- KVVEAHKIVLCAVSHVFMLLFNCK [V23C] — higher, 2.47
- KVVEAHKIVLCAVSHVFMLLFNDK [V23D] — higher, 2.29
- KVVEAHKIVLCAVSHVFMLLFNSK [V23S] — higher, 2.44
- KVVEAHKIVLCAVSHVFMLLFNWK [V23W] — higher, 2.5
- KVVEAHKIVLCAVSHVFMLLFNMK [V23M] — lower, 1.75
- KVVEAHKIVLCAVSHVFMLLFNYK [V23Y] — higher, 3.03
